T1: TACI huFc (R&D, #174TC) (human, UniProt O14836 2-166, limits assumed)
T1 construct: Bought reagent; also called human TACI; not shown: human Fc (huFc)
T1 sequence (looked up): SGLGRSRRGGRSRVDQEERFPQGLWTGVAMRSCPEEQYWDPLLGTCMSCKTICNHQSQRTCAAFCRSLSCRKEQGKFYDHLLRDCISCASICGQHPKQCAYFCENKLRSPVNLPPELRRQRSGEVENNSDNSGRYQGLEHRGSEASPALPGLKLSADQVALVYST

T2: BAFF R (R&D, #1162-BR) (human, UniProt Q96RJ3 7-71, limits assumed)
T2 construct: Bought reagent; also called human BAFF R
T2 sequence (looked up): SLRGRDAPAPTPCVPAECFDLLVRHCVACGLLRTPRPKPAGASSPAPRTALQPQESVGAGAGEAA

T3: recombinant human BCMA Fc (human, UniProt Q02223 1-54)
T3 construct: not shown: Fc
T3 sequence: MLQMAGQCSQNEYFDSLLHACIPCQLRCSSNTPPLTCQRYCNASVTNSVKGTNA

T4: human BCMA, full length, on cells (human, UniProt Q02223 1-184)
T4 construct: the cell line is named in each row's assay; also called K562-BCMA; K562 stably expressing BCMA
T4 sequence: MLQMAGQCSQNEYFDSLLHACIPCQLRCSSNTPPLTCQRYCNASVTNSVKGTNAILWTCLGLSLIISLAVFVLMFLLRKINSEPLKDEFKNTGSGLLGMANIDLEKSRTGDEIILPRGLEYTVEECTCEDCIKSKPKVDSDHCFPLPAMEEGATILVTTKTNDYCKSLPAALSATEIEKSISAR


Tests used:
BCMA_huFc [1] = molecular target: BCMA_huFc (human); assay: biacore, supernatant of the clone after reinduction
TACI huFc (R&D, #174TC) = molecular target: T1, TACI huFc (R&D, #174TC); assay: ELISA(scFv), 2 ug/ml coated antigen, HRP anti-Flag tag antibody
Procedure: (§1) 2 ug/ml recombinant human BCMA Fc, mouse BCMA Fc, TACI huFc (R&D, #174TC), BAFF R (R&D, #1162-BR) were coated on immunoplates at 4° C. overnight. The next day, 300 μl/well of 2% MPBS was added for 2 hours, then 200 nM purified antibody (scFv format) was added and incubated at 37° C. for 1 hour, washed three times with PBST (PBS containing 0.05% Tween-20), and washed three times with PBS. And then 1:4000 diluted HRP-labeled anti-Flag tag antibody (sigma, #A8592-1MG) was added, incubated for 1 hour at 37° C., washed three times with PBST (PBS containing 0.05% Tween-20) and washed three times with PBS. 100 ul/well of TMBS substrate was added and developed for 10-15 minutes. The reaction was quenched by adding 50 ul of 2 M sulfuric acid.

BAFF R (R&D, #1162-BR) = molecular target: T2, BAFF R (R&D, #1162-BR); assay: as above
Procedure: as §1

[2] = molecular target: T3, recombinant human BCMA Fc; assay: ELISA(scFv), 2 ug/ml coated antigen, 200 nM scFv, HRP anti-Flag tag antibody
Procedure: as §1

BCMA_huFc [3] = molecular target: BCMA_huFc (human); assay: biacore, supernatant of the clone after reinduction; column headed Dissociation constant (Kd, S^-1)
[4] = molecular target: T4, human BCMA, full length, on cells; assay: flow cytometry on K562-BCMA cells, scFv_Fc titrated, FITC anti-human Fc
Procedure: K562 and K562 cells (K562-BCMA) stably expressing human BCMA were used and harvested, washed with complete growth medium, and plated into U-bottom microtiter plates at about 1 to 5×10⁵ cells/well. The gradient-diluted scFv_Fc fusion antibody was incubated with K562-BCMA/K562 for 30 minutes on ice, and then incubated with FITC-labeled anti-human Fc as a secondary antibody. After two washing steps, the analysis was performed using a Guava easyCyte™ HT System, and the experimental data was processed using GraphPad Prism to obtain an EC50.

| Binder | fold lower Kd (dissociation rate) than parental clone 23F10 (BCMA_huFc [1]) | binding result (TACI huFc (R&D, #174TC)) | binding result (BAFF R (R&D, #1162-BR)) | binding result [2] | koff (BCMA_huFc [3]) | EC50 [4] |
| --- | --- | --- | --- | --- | --- | --- |
| 25C2 scFv (scFv, scFv format; also called clone 25C2) scFv: EVQLLESGGGLVQPGGSLRLSCAASGFTFGGNAMSWVRQAPGKGLEWVSAISGNGGSTFYADSVKGRFTISRDNSKNTLYLQMNSLRAEDTAVYYCAKVRPFWGTFDYWGQGTLVTVSSGGGGSGGGGSGGGGSEIVLTQSPGTLSLSPGERATLSCRASQSVSSSYLAWYQQKPGQAPRLLIYGASSRATGIPDRFSGSGSGTDFTLTISRLEPEDFAVYYCQQYFNPPEYTFGQGTKVEIKR | 10 times | no binding (tested: 200 nM) | no binding (tested: 200 nM) | binds | 0.000364 s⁻¹ | – |
| 25D2 scFv (scFv, scFv format; also called clone 25D2) scFv: EVQLLESGGGLVQPGGSLRLSCAASGFTFRSYAMSWVRQAPGKGLEWVSAISGGGGNTFYADSVKGRFTISRDNSKNTLYLQMNSLRAEDTAVYYCAKVRPFWGTFDYWGQGTLVTVSSGGGGSGGGGSGGGGSEIVLTQSPGTLSLSPGERATLSCRASQSVSSSYLAWYQQKPGQAPRLLIYGASSRATGIPDRFSGSGSGTDFTLTISRLEPEDFAVYYCQQYFNPPEYTFGQGTKVEIKR | 10 times | no binding (tested: 200 nM) | no binding (tested: 200 nM) | binds | 0.000374 s⁻¹ | – |
| 25C2 (scFv_Fc) (Fc fusion, also called clone 25C2; not shown: human Fc fragment of vector V152) EVQLLESGGGLVQPGGSLRLSCAASGFTFGGNAMSWVRQAPGKGLEWVSAISGNGGSTFYADSVKGRFTISRDNSKNTLYLQMNSLRAEDTAVYYCAKVRPFWGTFDYWGQGTLVTVSSGGGGSGGGGSGGGGSEIVLTQSPGTLSLSPGERATLSCRASQSVSSSYLAWYQQKPGQAPRLLIYGASSRATGIPDRFSGSGSGTDFTLTISRLEPEDFAVYYCQQYFNPPEYTFGQGTKVEIK | – | – | – | – | – | 2.59 nM |
| 25D2 (scFv_Fc) (Fc fusion, also called clone 25D2; not shown: human Fc fragment of vector V152) EVQLLESGGGLVQPGGSLRLSCAASGFTFRSYAMSWVRQAPGKGLEWVSAISGGGGNTFYADSVKGRFTISRDNSKNTLYLQMNSLRAEDTAVYYCAKVRPFWGTFDYWGQGTLVTVSSGGGGSGGGGSGGGGSEIVLTQSPGTLSLSPGERATLSCRASQSVSSSYLAWYQQKPGQAPRLLIYGASSRATGIPDRFSGSGSGTDFTLTISRLEPEDFAVYYCQQYFNPPEYTFGQGTKVEIK | – | – | – | – | – | 1.89 nM |

Source: patent US20190359726A1 (CRAGE MEDICAL, published 2019)
